{"source": "the RNAGym collection of RNA variant scans (doi:10.7554/elife.80360)", "parents": {"B1": {"name": "Hammerhead Ribozyme (parent)", "chain": "ACCGGAUGUGCUUUCCGGUCUGAUGAGUCCGUGAGGACGAAACAG"}}, "data": [{"variants_of": "B1", "assay": "self-cleavage, relative activity (ratio to wild type); higher = more cleavage; co-transcriptional", "values": [{"variant": "C3G G25C", "self-cleavage": 0.33}, {"variant": "C3G G25U", "self-cleavage": 0.329}, {"variant": "C3G G25A", "self-cleavage": 0.296}, {"variant": "C3U C30G", "self-cleavage": 0.727}, {"variant": "C3U C30A", "self-cleavage": 1.05}, {"variant": "C3U C30U", "self-cleavage": 0.929}, {"variant": "C3A G10A", "self-cleavage": 0.897}, {"variant": "C3A G10U", "self-cleavage": 0.921}, {"variant": "C3A G10C", "self-cleavage": 0.587}, {"variant": "C3A U32G", "self-cleavage": 0.355}, {"variant": "C3A U32A", "self-cleavage": 0.7}, {"variant": "C3A U32C", "self-cleavage": 0.803}, {"variant": "C3G G31C", "self-cleavage": 0.527}, {"variant": "C3G G31A", "self-cleavage": 0.636}, {"variant": "C3G G31U", "self-cleavage": 0.609}, {"variant": "C3U A37G", "self-cleavage": 0.799}, {"variant": "C3U A37C", "self-cleavage": 0.566}, {"variant": "C3U A37U", "self-cleavage": 0.794}, {"variant": "C3A A42C", "self-cleavage": 0.313}, {"variant": "C3A A42G", "self-cleavage": 0.279}, {"variant": "C3A A42U", "self-cleavage": 0.356}, {"variant": "C3U G33C", "self-cleavage": 0.957}, {"variant": "C3U G33A", "self-cleavage": 0.953}, {"variant": "C3U G33U", "self-cleavage": 0.991}, {"variant": "C3A G35A", "self-cleavage": 0.376}, {"variant": "C3A G35C", "self-cleavage": 0.324}, {"variant": "C3A G35U", "self-cleavage": 0.369}, {"variant": "C3G C20G", "self-cleavage": 0.317}, {"variant": "C3G C20U", "self-cleavage": 0.26}, {"variant": "C3G C20A", "self-cleavage": 0.295}, {"variant": "C3A G17U", "self-cleavage": 0.874}, {"variant": "C3A G17A", "self-cleavage": 0.634}, {"variant": "C3A G17C", "self-cleavage": 0.708}, {"variant": "C3G G45U", "self-cleavage": 0.374}, {"variant": "C3G G45C", "self-cleavage": 0.35}, {"variant": "C3G G45A", "self-cleavage": 0.371}, {"variant": "C3A U12A", "self-cleavage": 0.836}, {"variant": "C3A U12C", "self-cleavage": 0.262}, {"variant": "C3A U12G", "self-cleavage": 0.487}, {"variant": "C3A A41U", "self-cleavage": 0.259}, {"variant": "C3A A41G", "self-cleavage": 0.262}, {"variant": "C3A U19G", "self-cleavage": 0.296}, {"variant": "C3A U19A", "self-cleavage": 0.316}, {"variant": "C3A U19C", "self-cleavage": 0.277}, {"variant": "C3G U9C", "self-cleavage": 0.574}, {"variant": "C3G U9A", "self-cleavage": 0.411}, {"variant": "C3G U9G", "self-cleavage": 0.407}, {"variant": "C3G G36A", "self-cleavage": 0.271}, {"variant": "C3G G36U", "self-cleavage": 0.278}, {"variant": "C3G G36C", "self-cleavage": 0.328}, {"variant": "C3U C29A", "self-cleavage": 0.593}, {"variant": "C3U C29U", "self-cleavage": 0.926}, {"variant": "C3U C29G", "self-cleavage": 0.594}, {"variant": "C3U G45C", "self-cleavage": 0.579}, {"variant": "C3U G45U", "self-cleavage": 0.599}, {"variant": "C3U G45A", "self-cleavage": 0.468}, {"variant": "C3A G25U", "self-cleavage": 0.282}, {"variant": "C3A G25C", "self-cleavage": 0.344}, {"variant": "C3A G25A", "self-cleavage": 0.298}, {"variant": "C3U G36C", "self-cleavage": 0.424}, {"variant": "C3U G36A", "self-cleavage": 0.617}, {"variant": "C3U G36U", "self-cleavage": 0.491}, {"variant": "C3A G22A", "self-cleavage": 0.308}, {"variant": "C3A G22C", "self-cleavage": 0.285}, {"variant": "C3A G22U", "self-cleavage": 0.291}, {"variant": "C3U G22A", "self-cleavage": 0.381}, {"variant": "C3U G22U", "self-cleavage": 0.381}, {"variant": "C3U G22C", "self-cleavage": 0.341}, {"variant": "C3A U7C", "self-cleavage": 0.386}, {"variant": "C3A U7A", "self-cleavage": 0.687}, {"variant": "C3A U7G", "self-cleavage": 0.7}, {"variant": "C3G C16A", "self-cleavage": 0.39}, {"variant": "C3G C16U", "self-cleavage": 0.327}, {"variant": "C3G C16G", "self-cleavage": 0.258}, {"variant": "C3G G10C", "self-cleavage": 0.52}, {"variant": "C3G G10A", "self-cleavage": 0.771}, {"variant": "C3G G10U", "self-cleavage": 0.638}, {"variant": "C3U G5A", "self-cleavage": 0.491}, {"variant": "C3U G5C", "self-cleavage": 0.351}, {"variant": "C3U G5U", "self-cleavage": 1.4}, {"variant": "C3A C20A", "self-cleavage": 0.348}, {"variant": "C3A C20U", "self-cleavage": 0.319}, {"variant": "C3A C20G", "self-cleavage": 0.254}, {"variant": "C3A G33U", "self-cleavage": 0.733}, {"variant": "C3A G33C", "self-cleavage": 0.741}, {"variant": "C3A G33A", "self-cleavage": 0.674}, {"variant": "C3U A42G", "self-cleavage": 0.393}, {"variant": "C3U A42U", "self-cleavage": 0.38}, {"variant": "C3U A42C", "self-cleavage": 0.406}, {"variant": "C3U A40U", "self-cleavage": 0.36}, {"variant": "C3U A40G", "self-cleavage": 0.34}, {"variant": "C3U A40C", "self-cleavage": 0.469}, {"variant": "C3U C11G", "self-cleavage": 1.25}, {"variant": "C3U C11A", "self-cleavage": 1.16}, {"variant": "C3U C11U", "self-cleavage": 0.504}, {"variant": "C3G C30A", "self-cleavage": 0.353}, {"variant": "C3G C30U", "self-cleavage": 0.636}, {"variant": "C3G C30G", "self-cleavage": 0.273}, {"variant": "C3A U28A", "self-cleavage": 0.311}, {"variant": "C3A U28C", "self-cleavage": 0.354}, {"variant": "C3A U28G", "self-cleavage": 0.34}, {"variant": "C3G G5C", "self-cleavage": 0.268}, {"variant": "C3G G5U", "self-cleavage": 0.305}, {"variant": "C3G G5A", "self-cleavage": 0.57}, {"variant": "C3U G18C", "self-cleavage": 0.472}, {"variant": "C3U G18U", "self-cleavage": 0.453}, {"variant": "C3U G18A", "self-cleavage": 0.412}, {"variant": "C3G U13G", "self-cleavage": 0.628}, {"variant": "C3G U13A", "self-cleavage": 1.02}, {"variant": "C3G U13C", "self-cleavage": 0.655}, {"variant": "C3G G18C", "self-cleavage": 0.335}, {"variant": "C3G G18U", "self-cleavage": 0.535}, {"variant": "C3G G18A", "self-cleavage": 0.323}, {"variant": "C3A C29G", "self-cleavage": 0.397}, {"variant": "C3A C29A", "self-cleavage": 0.406}, {"variant": "C3A C29U", "self-cleavage": 0.534}, {"variant": "C3U G31C", "self-cleavage": 0.974}, {"variant": "C3U G31U", "self-cleavage": 1.17}, {"variant": "C3U G31A", "self-cleavage": 1.06}, {"variant": "C3U", "self-cleavage": 1.03}, {"variant": "C3G", "self-cleavage": 0.537}, {"variant": "C3G G33C", "self-cleavage": 0.468}, {"variant": "C3G G33U", "self-cleavage": 0.591}, {"variant": "C3G G33A", "self-cleavage": 0.577}, {"variant": "C3G U14A", "self-cleavage": 0.347}, {"variant": "C3G U14G", "self-cleavage": 0.557}, {"variant": "C3G U14C", "self-cleavage": 0.56}, {"variant": "C3G G22C", "self-cleavage": 0.292}, {"variant": "C3G G22A", "self-cleavage": 0.304}, {"variant": "C3G G22U", "self-cleavage": 0.276}, {"variant": "C3G A26G", "self-cleavage": 0.296}, {"variant": "C3G A26C", "self-cleavage": 0.268}, {"variant": "C3G A26U", "self-cleavage": 0.361}, {"variant": "C3U G27U", "self-cleavage": 0.554}, {"variant": "C3U G27A", "self-cleavage": 0.93}, {"variant": "C3U G27C", "self-cleavage": 0.599}, {"variant": "C3G U21G", "self-cleavage": 0.298}, {"variant": "C3G U21A", "self-cleavage": 0.236}, {"variant": "C3G U21C", "self-cleavage": 0.413}, {"variant": "C3G U32C", "self-cleavage": 0.433}, {"variant": "C3G U32A", "self-cleavage": 0.639}, {"variant": "C3G U32G", "self-cleavage": 0.36}, {"variant": "C3A G36A", "self-cleavage": 0.287}, {"variant": "C3A G36U", "self-cleavage": 0.283}, {"variant": "C3A G36C", "self-cleavage": 0.338}, {"variant": "C3U C16A", "self-cleavage": 0.476}, {"variant": "C3U C16G", "self-cleavage": 0.492}, {"variant": "C3U C16U", "self-cleavage": 0.955}, {"variant": "C3G C43U", "self-cleavage": 0.272}, {"variant": "C3G C43G", "self-cleavage": 0.273}, {"variant": "C3G C43A", "self-cleavage": 0.318}, {"variant": "C3U C15G", "self-cleavage": 0.382}, {"variant": "C3U C15A", "self-cleavage": 0.486}, {"variant": "C3U C15U", "self-cleavage": 0.984}, {"variant": "C3G C11G", "self-cleavage": 0.647}, {"variant": "C3G C11A", "self-cleavage": 0.702}, {"variant": "C3G C11U", "self-cleavage": 0.314}, {"variant": "C3A C30U", "self-cleavage": 0.772}, {"variant": "C3A C30A", "self-cleavage": 0.557}, {"variant": "C3A C30G", "self-cleavage": 0.426}, {"variant": "C3U C20G", "self-cleavage": 0.306}, {"variant": "C3U C20U", "self-cleavage": 0.523}, {"variant": "C3U C20A", "self-cleavage": 0.465}, {"variant": "C3G C15U", "self-cleavage": 0.231}, {"variant": "C3G C15A", "self-cleavage": 0.298}, {"variant": "C3G C15G", "self-cleavage": 0.314}, {"variant": "C3G G8C", "self-cleavage": 0.452}]}]}
